Laboratory results reported in patent US20020102651A1 (Dana-Farber, published 2002).

Biological target: T1, human B7-4M (B7-4 membrane form), expressed on transfected COS or CHO cells (human, UniProt Q9NZQ7 19-290)
T1 construct: also called 292
Test: FACS on B7-4M-transfected COS cells
Method: COS cells were transfected with either vector DNA (pCDNAI), or an expression plasmid containing the B7-4M cDNA. After 72 hours, the tansfected COS cells were detached by incubation in PBS containing 0.5 mM EDTA for 30 min. at 37° C.
The ability of COS cells expressing B7-4M to bind to various T cell ligands and antibodies was tested. […] The ability of COS cells expressing B7-4M to bind to IgG and murine ICOS-his fusion protein was also tested. No binding of human B7-4 to murine ICOS was detected (FIG. 9).

T1 sequence (Q9NZQ7 19-290): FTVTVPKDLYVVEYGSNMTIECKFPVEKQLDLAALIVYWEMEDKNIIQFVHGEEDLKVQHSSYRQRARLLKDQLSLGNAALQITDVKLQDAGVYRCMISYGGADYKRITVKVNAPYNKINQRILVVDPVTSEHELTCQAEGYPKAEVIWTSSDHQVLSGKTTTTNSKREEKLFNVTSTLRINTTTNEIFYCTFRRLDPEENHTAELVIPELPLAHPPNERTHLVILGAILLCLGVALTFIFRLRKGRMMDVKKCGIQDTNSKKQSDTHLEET

binding result: no binding
B1: murine ICOS-his fusion protein (receptor, mouse, UniProt Q9WVS0 21-144, looked up)
chain: EINGSADHRMFSFHNGGVQISCKYPETVQQLKMRLFREREVLCELTKTKGSGNAVSIKNPMLCLYHLSNNSVSFFLNNPDSSQGSYYFCSLSIFDPPPFQERNLSGGYLHIYESQLCCQLKLWL
notes: not shown: his tag
